Measurements from article PMC9452701, “Highly efficient production of rebaudioside D enabled by structure-guided engineering of bacterial glycosyltransferase YojK” (Frontiers in Bioengineering and Biotechnology, 2022).

Columns and labels:
YojK = biological target: T1, YojK (Bacillus subtilis, UniProt O31853); assay: X-ray crystal structure, […] Å; format: binding; conditions: co-crystallised with 5 mM UDP, pH 8.0, 18°C; sugar donor site
T1 construct: codon-optimized synthetic gene in pET-21b(+), E. coli BL21(DE3), Ni-NTA and Superdex 200; M1-M405 described; two monomers per asymmetric unit
T1 sequence (O31853 1-405): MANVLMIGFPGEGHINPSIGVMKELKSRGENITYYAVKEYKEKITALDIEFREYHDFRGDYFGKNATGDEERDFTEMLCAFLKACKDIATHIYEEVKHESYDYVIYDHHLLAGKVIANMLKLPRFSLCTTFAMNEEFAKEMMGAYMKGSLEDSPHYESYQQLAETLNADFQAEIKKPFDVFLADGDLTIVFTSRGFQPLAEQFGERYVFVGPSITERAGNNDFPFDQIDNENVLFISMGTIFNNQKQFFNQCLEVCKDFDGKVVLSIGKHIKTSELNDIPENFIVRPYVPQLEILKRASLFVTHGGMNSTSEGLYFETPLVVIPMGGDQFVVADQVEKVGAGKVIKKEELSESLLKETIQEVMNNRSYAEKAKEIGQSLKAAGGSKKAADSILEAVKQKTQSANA

purified protein = substrate: C=C1C[C@@]23CC[C@H]4[C@@](C)(CCC[C@@]4(C)C(=O)O[C@@H]4O[C@H](CO)[C@@H](O)[C@H](O)[C@H]4O)[C@@H]2CC[C@]1(O[C@@H]1O[C@H](CO)[C@@H](O)[C@H](O[C@@H]2O[C@H](CO)[C@@H](O)[C@H](O)[C@H]2O)[C@H]1O[C@@H]1O[C@H](CO)[C@@H](O)[C@H](O)[C@H]1O)C3; assay: purified protein; conditions: 5 mM UDPG, 10 mM MnCl2, 50 mM Tris-HCl pH 8.0, 35°C, 20 min, Reb A 0.05-0.7 mM

## O=c1ccn([C@@H]2O[C@H](COP(=O)(O)OP(=O)(O)O)[C@@H](O)[C@H]2O)c(=O)[nH]1 [UDP]
YojK
  X-ray crystal structure, 1.90 Å: we solved the crystal structure of YojK in complex with uridine diphosphate (UDP)

B1: YojK (Bacillus subtilis subsp. subtilis str. 168) (protein)
chain: MANVLMIGFPGEGHINPSIGVMKELKSRGENITYYAVKEYKEKITALDIEFREYHDFRGDYFGKNATGDEERDFTEMLCAFLKACKDIATHIYEEVKHESYDYVIYDHHLLAGKVIANMLKLPRFSLCTTFAMNEEFAKEMMGAYMKGSLEDSPHYESYQQLAETLNADFQAEIKKPFDVFLADGDLTIVFTSRGFQPLAEQFGERYVFVGPSITERAGNNDFPFDQIDNENVLFISMGTIFNNQKQFFNQCLEVCKDFDGKVVLSIGKHIKTSELNDIPENFIVRPYVPQLEILKRASLFVTHGGMNSTSEGLYFETPLVVIPMGGDQFVVADQVEKVGAGKVIKKEELSESLLKETIQEVMNNRSYAEKAKEIGQSLKAAGGSKKAADSILEAVKQKTQSANA
Purified protein
  Km: 210.52 ± 11.70 µM
  kcat: 0.018 s⁻¹
  kcat/Km: 85.5 M⁻¹ s⁻¹

B2: YojK (Bacillus subtilis subsp. subtilis str. 168; G326F/I241T) (protein)
chain: MANVLMIGFPGEGHINPSIGVMKELKSRGENITYYAVKEYKEKITALDIEFREYHDFRGDYFGKNATGDEERDFTEMLCAFLKACKDIATHIYEEVKHESYDYVIYDHHLLAGKVIANMLKLPRFSLCTTFAMNEEFAKEMMGAYMKGSLEDSPHYESYQQLAETLNADFQAEIKKPFDVFLADGDLTIVFTSRGFQPLAEQFGERYVFVGPSITERAGNNDFPFDQIDNENVLFISMGTTFNNQKQFFNQCLEVCKDFDGKVVLSIGKHIKTSELNDIPENFIVRPYVPQLEILKRASLFVTHGGMNSTSEGLYFETPLVVIPMFGDQFVVADQVEKVGAGKVIKKEELSESLLKETIQEVMNNRSYAEKAKEIGQSLKAAGGSKKAADSILEAVKQKTQSANA
Purified protein
  Km: 347.63 ± 24.23 µM
  kcat: 0.258 s⁻¹
  kcat/Km: 741 M⁻¹ s⁻¹

B3: YojK (Bacillus subtilis subsp. subtilis str. 168; G326F) (protein)
chain: MANVLMIGFPGEGHINPSIGVMKELKSRGENITYYAVKEYKEKITALDIEFREYHDFRGDYFGKNATGDEERDFTEMLCAFLKACKDIATHIYEEVKHESYDYVIYDHHLLAGKVIANMLKLPRFSLCTTFAMNEEFAKEMMGAYMKGSLEDSPHYESYQQLAETLNADFQAEIKKPFDVFLADGDLTIVFTSRGFQPLAEQFGERYVFVGPSITERAGNNDFPFDQIDNENVLFISMGTIFNNQKQFFNQCLEVCKDFDGKVVLSIGKHIKTSELNDIPENFIVRPYVPQLEILKRASLFVTHGGMNSTSEGLYFETPLVVIPMFGDQFVVADQVEKVGAGKVIKKEELSESLLKETIQEVMNNRSYAEKAKEIGQSLKAAGGSKKAADSILEAVKQKTQSANA
Purified protein
  Km: 290.16 ± 8.34 µM
  kcat: 0.154 s⁻¹
  kcat/Km: 528 M⁻¹ s⁻¹

B4: YojK (Bacillus subtilis subsp. subtilis str. 168; I241T) (protein)
chain: MANVLMIGFPGEGHINPSIGVMKELKSRGENITYYAVKEYKEKITALDIEFREYHDFRGDYFGKNATGDEERDFTEMLCAFLKACKDIATHIYEEVKHESYDYVIYDHHLLAGKVIANMLKLPRFSLCTTFAMNEEFAKEMMGAYMKGSLEDSPHYESYQQLAETLNADFQAEIKKPFDVFLADGDLTIVFTSRGFQPLAEQFGERYVFVGPSITERAGNNDFPFDQIDNENVLFISMGTTFNNQKQFFNQCLEVCKDFDGKVVLSIGKHIKTSELNDIPENFIVRPYVPQLEILKRASLFVTHGGMNSTSEGLYFETPLVVIPMGGDQFVVADQVEKVGAGKVIKKEELSESLLKETIQEVMNNRSYAEKAKEIGQSLKAAGGSKKAADSILEAVKQKTQSANA
Purified protein
  Km: 197.74 ± 9.25 µM
  kcat: 0.0223 s⁻¹
  kcat/Km: 113 M⁻¹ s⁻¹

B5: YojK (Bacillus subtilis subsp. subtilis str. 168; G327N) (protein)
chain: MANVLMIGFPGEGHINPSIGVMKELKSRGENITYYAVKEYKEKITALDIEFREYHDFRGDYFGKNATGDEERDFTEMLCAFLKACKDIATHIYEEVKHESYDYVIYDHHLLAGKVIANMLKLPRFSLCTTFAMNEEFAKEMMGAYMKGSLEDSPHYESYQQLAETLNADFQAEIKKPFDVFLADGDLTIVFTSRGFQPLAEQFGERYVFVGPSITERAGNNDFPFDQIDNENVLFISMGTIFNNQKQFFNQCLEVCKDFDGKVVLSIGKHIKTSELNDIPENFIVRPYVPQLEILKRASLFVTHGGMNSTSEGLYFETPLVVIPMGNDQFVVADQVEKVGAGKVIKKEELSESLLKETIQEVMNNRSYAEKAKEIGQSLKAAGGSKKAADSILEAVKQKTQSANA
Purified protein
  Km: 176.23 ± 10.62 µM
  kcat: 0.0837 s⁻¹
  kcat/Km: 475 M⁻¹ s⁻¹

B6: YojK (Bacillus subtilis subsp. subtilis str. 168; G327N/I241T) (protein)
chain: MANVLMIGFPGEGHINPSIGVMKELKSRGENITYYAVKEYKEKITALDIEFREYHDFRGDYFGKNATGDEERDFTEMLCAFLKACKDIATHIYEEVKHESYDYVIYDHHLLAGKVIANMLKLPRFSLCTTFAMNEEFAKEMMGAYMKGSLEDSPHYESYQQLAETLNADFQAEIKKPFDVFLADGDLTIVFTSRGFQPLAEQFGERYVFVGPSITERAGNNDFPFDQIDNENVLFISMGTTFNNQKQFFNQCLEVCKDFDGKVVLSIGKHIKTSELNDIPENFIVRPYVPQLEILKRASLFVTHGGMNSTSEGLYFETPLVVIPMGNDQFVVADQVEKVGAGKVIKKEELSESLLKETIQEVMNNRSYAEKAKEIGQSLKAAGGSKKAADSILEAVKQKTQSANA
Purified protein
  Km: 193.07 ± 7.30 µM
  kcat: 0.179 s⁻¹
  kcat/Km: 929 M⁻¹ s⁻¹
